# Assay results reported in PMC6537384, “A GDF11/myostatin inhibitor, GDF11 propeptide-Fc, increases skeletal muscle mass and improves muscle strength in dystrophic mdx mice” (Skeletal Muscle, 2019).
# T1: recombinant GDF11 (UniProt O95390 299-407)
# T1 sequence (looked up): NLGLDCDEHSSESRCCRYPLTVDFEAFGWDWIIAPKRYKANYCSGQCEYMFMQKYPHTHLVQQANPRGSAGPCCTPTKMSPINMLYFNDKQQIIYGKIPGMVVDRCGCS
# T2: recombinant MSTN (UniProt O14793 267-375)
# T2 sequence (looked up): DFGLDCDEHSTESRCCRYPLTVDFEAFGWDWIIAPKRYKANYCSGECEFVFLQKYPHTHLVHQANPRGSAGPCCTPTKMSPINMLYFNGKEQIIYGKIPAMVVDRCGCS
# B1: GDF11 propeptide-Fc (Fc fusion, human, UniProt O95390 25-298, looked up)
# chain: AEGPAAAAAAAAAAAAAGVGGERSSRPAPSVAPEPDGCPVCVWRQHSRELRLESIKSQILSKLRLKEAPNISREVVKQLLPKAPPLQQILDLHDFQGDALQPEDFLEEDEYHATTETVISMAQETDPAVQTDGSPLCCHFHFSPKVMFTKVLKAQLWVYLRPVPRPATVYLQILRLKPLTGEGTAGGGGGGRRHIRIRSLKIELHSRSGHWQSIDFKQVLHSWFRQPQSNWGIEINAFDPSGTDLAVTSLGPGAEGLHPFMELRVLENTKRSRR
# What was measured:
# recombinant GDF11 = molecular target: T1, recombinant GDF11; assay: cell-based or functional assay
# recombinant MSTN = molecular target: T2, recombinant MSTN; assay: cell-based or functional assay
binder,measurement,setting,value
B1,"average myotube diameter relative to control, C2C12 myotubes expressing GDF11PRO-Fc (AAV6) treated with 100 ng/ml rGDF11 (rGDF11 alone: − 39%)",recombinant GDF11,-1.8%
same,"differentiation index relative to untreated control, C2C12 myotubes expressing GDF11PRO-Fc (AAV6) treated with 100 ng/ml rGDF11 (rGDF11 alone: − 15%)",recombinant GDF11,-1.9%
same,"average myotube diameter relative to control, C2C12 myotubes expressing GDF11PRO-Fc (AAV6) treated with 100 ng/ml rMSTN (rMSTN alone: − 35%)",recombinant MSTN,-5.3%
same,"differentiation index relative to untreated control, C2C12 myotubes expressing GDF11PRO-Fc (AAV6) treated with 100 ng/ml rMSTN (rMSTN alone: − 14%)",recombinant MSTN,-3%
